Data on 15 sequences can be found in the DeepSol protein solubility set.

The nature of the data set: soluble on expression in E. coli; label from the status in PepcDB or PDB records.
As to “MSLTLPSEKPATDVAAQCFLNALIRETTDWKLTEYPPDELIIPLDEQKSLHFRVAYFSPTQHHRFAFPARLVTASGSYPVDFTTLSRLIIDKLRHQLFLPVPLCETFHQRVLESHAHTQQAIDARHDWTALREKALNFGEAEQALLTGHAFHPAPKSHEPFNRREAERYLPDMAPHFPLRWFSVDKTQIAGESLHLNLQQRLTRFAAENAPQLLNELSDNQWLFPLHPWQGEYLLQQGWCQALVAKGLIKDLGEAGTSWLPTTSSRSLYCATSRDMIKFSLSVRLTNSIRTLSVKEVKRGMRLARLAQTDGWQMLQVRFPTFRVMQEDGWAGLLDLNGNIMQESLFALRENLLVDQPKSQTNVLVSLTQAAPDGGDSLLVSAVKRLSDRLGITVQQAAHAWVDAYCQQVLKPLFTAEADYGLVLLAHQQNILVQMLGDLPVGFIYRDCQGSAFMPHATDWLDSIGEAQAENEGHHHHHH”, the “soluble on expression in E. coli” value is reported as “not soluble”.

Consider “MSLTLRDVAAEAGVSPMTASNALRGKPGVKESTRAKVIAAAKKLNYRINLTASMLKSGRSNIIHVIVNEFDSPFYSKLTQALSNEIVSRGLIPFIEQTQYSPDAAEHALSSNPFSGQLFDGEILHATGLGTNVPLSKLNGGRPFVLLDACEETPTVDAVNFPNEEAERAAMQHLIDRGCRNIAIVGHRFAPRADLAHAQNAFALRLRGACGALSDAGLPYDESMVFEAGDVANGIIAGHAIAERILAARSGHGGTEFDGACCANDFAAFGVIRGLADRGLRVPQDVKVIGFDGVTSGSYTTPALSTIQVDFMQLAKFSVDMLSERIDHGADEALPPRRAIIGYQLVDRESTAEGHHHHHH”, for which the “soluble on expression in E. coli” value is given as “soluble”.

Consider “MSLTNQVTYLFFHGMKQISEHLFTTEEQAIIARSKAEGSYMKAPNGQATNLNKKQWAQVRTRAFREWFGDWENNPDEASKVRDANGEPLVVYHGTPISRDQAADRSKFRIADDWEIQTINAPFHTFRGGAYNGLIFTSLTEEKARSIGETRSMSIPDSEDGREQWTTDSYVYDLFVNARQPFDVKNPNAVKDILDALEGQLTAYDFYLGMEVPVSRKEAEKILEGGNSWRVVETPSMQEIIRSRGYDAIHALDEGVQYMAVFAPNQLKASGKYLYSERNTGVFSPGNNDIRFREVHHGVPASFTGYRSMKTETVRNDNIPAVLAALREKLEDTEQEWQDRILDYIAENYPTQTTVSAQTRSPEGLKEREAMKKDKTLRKMKEEAVAALNAADEKVMEAFKKENGDILFREVKENDGGKSLVGLHNISEEKLLKALKLGGLANPSAAVIDIARQSHEGYGEISLILPSSMIDKRTGRNAGTFSGDAWTPVYPQIERQFSGDGSGRVRDAISRLPQEMQPNVRSAWNSYMDGRDEGSAFAYQFLYERGEAPEFRKIEPLFGEHLRNRISAIDALDDYDERNTALLEVYIEENFGGDQTKFKDYIETRKRVLQDKEGHHHHHH”, for which the “soluble on expression in E. coli” value is “not soluble”.

Regarding “MSLTPDAQVATAQRDDQALISEGKDLYDVACITCHGVNLQGVEDRGPSLVGVGEGAVYFQVHSGRMPILRNEAQAERKAPRYTEAQTLAIAAYVAANGGGPGLVYNEDGTLAMEELRGENYDGQITSADVARGGDLFRLNCASCHNFTGRGGALSSGKYAPNLDAANEQEIYQAMLTGPQNMPKFSDRQLSADEKKDIIAFIKSTKEGHHHHHH”, the “soluble on expression in E. coli” value is recorded as “soluble”.

Take “MSLTPLMVNGILGESVTLPLEFPAGEKVNFITWLFNETSLAFIVPHETKSPEIHVTNPKQGKRLNFTQSYSLQLSNLKMEDTGSYRAQISTKTSAKLSSYTLRILRQLRNIQVTNHSQLFQNMTCELHLTCSVEDADDNVSFRWEALGNTLSSQPNLTVSWDPRISSEQDYTCIAENAVSNLSFSVSAQKLCE”: the “soluble on expression in E. coli” value is reported as “soluble”.

For “MSLTPSMRRTRIVCISDTHNCQVKLPEGDVLIHAGDLTNQGSHAELAKTVAWLEKQDFEAKIVIAGNHDITLDPEFYAEHGLYFHNKNPQSHDECLRLFTSSPSITYLSHGSANISLTSPSGPRTHFKVFGSPYSPRHGLWAFYYDAPQNPSNWSDLTSLWESIPLDTDIVVTHTPPRMHCDETDERRATGCEALRQALWRVRPQLVVCGHIHDGRGAERVMWDLNCRNVAYQEESVVRWEDPGQGNNKTCLVDLTGKKAPSEGHHHHHH”, the “soluble on expression in E. coli” value is recorded as “soluble”.

Regarding “MSLTPWLSIVGISEEGWLALTPIAQQCILQADILVGSDRHFDLLPSLPGAEQWRWGSPFSATITQILERRGQSICILASGDPMCYGVGSLLAQRLPLTELQILPAPSAFSLACSRLGWALPEVETLSLCGRDPALLNALLYPGAKILALSADRSTPATIAEQLCQQGWGSSRLTVLEHLGGPKERKISEIAEHWSQPTIASLNTVAIECHARDRDLIVPPRLTGLPDAAYHHDGQLTKREVRAITLAALAPLPGQLLWDVGAGCGSIGIEWMRSDRRCRAIAIEQHPQRLQIITQNAIALGVPNLQVVAGSAPATLSGLPQPDAIFIGGGVTAPGVLDQCWQALPMGGRLVVNAVTLESEQVVLAGQQRWGGDLIRVAVQRAEPIGRFLGWKSLAPITQWTVKKTALEHHHHHH”, the “soluble on expression in E. coli” value is “soluble”.

Turning to “MSLTQTILVIDDDAAVRGSFQLVLGEIGCVVRVAEDGLQGIAMAREERPDLIFLDLKMPGIDGVETMRRLLAMDPTFNIYIVTAFSQEYLDDLKQAQAEGMTFQLANKPLSSTQIRHIARSVRSLSNVSKDNHRISLTLYVVSVNPEIQKVVDQLSNVLAATYRAGFWVLNVVEVLGMPEKALEKDVFATPMLVREVPEPVLKLLGDLSRMHSVLSAITAENGHGAGTEGHHHHHH”, the “soluble on expression in E. coli” value is recorded as “soluble”.

Regarding “MSLTQYWLGLDCGGSWLKAGLYDREGREAGVQRLPLCALSPQPGWAERDMAELWQCCMAVIRALLTHSGVSGEQIVGIGISAQGKGLFLLDKNDKPLGNAILSSDRRAMEIVRRWQEDGIPEKLYPLTRQTLWTGHPVSLLRWLKEHEPERYAQIGCVMMTHDYLRWCLTGVKGCEESNISESNLYNMSLGEYDPCLTDWLGIAEINHALPPVVGSAEICGEITAQTAALTGLKAGTPVVGGLFDVVSTALCAGIEDEFTLNAVMGTWAVTSGITRGLRDGEAHPYVYGRYVNDGEFIVHEASPTSSGNLEWFTAQWGEISFDEINQAVASLPKAGGDLFFLPFLYGSNAGLEMTSGFYGMQAIHTRAHLLQAIYEGVVFSHMTHLNRMRERFTDVHTLRVTGGPAHSDVWMQMLADVSGLRIELPQVEETGCFGAALAARVGTGVYHNFSEAQRDLRHPVRTLLPDMTAHQLYQKKYQRYQHLIAALQGFHARIKEHTLEGHHHHHH”, the “soluble on expression in E. coli” value was “soluble”.

“MSLTRDGSPWIPIAGEMHYSRIAAERWDTELAKMAAAGIDVVSTYVFWNHHEEREGEWDFSGNRNVRRFVELCARHGLHVIVRLGPFCHGEVRNGGLPDWLYGKSYEVRSLDAGFLDAVRGLYAHIAQQLRGLYFKDGGPIIAAQVDNEYMASSAPWEMTTGISREWVPSGHDGAGYLERLRDIAIEEGIDPPMFTCTGWQSPVPDDMLPLWGGYAYRPWLFYDGVGAEGMTEHPATDEYRYRRLHGSSTSDGFDPPYDPDSRPYACCEMGGGMFNSYDYRFVLPKRSVDAMANIKLGSGCDFLGYYMFHGGTNPKGAAGFLNEGQTPKRSYDFQAPLGKFGQVRESYRRLRTLHEFVKAFGPELAGMPVSLQDGQDRIDPSDSETLRYAVRSDGERGFVSIDNFQDHARVPSRHGEQIDVTTGTGERIRFTGIGLAEGENCILPFNMDLDGVRLVRANLQPVTVLRVPGRPFRTFVFLKPDGMDELTFHFEGDIQDVTVGKADFERFMVRDAAEIVCVTRALAGRMTVLDGGLAFVDDDNALLYEDGDGWTLESPRAENGIAAYPEGLLGSPRPVEPVSVYARMRRLHADRYEIALPAGMGRLFRDQRQVADVMLNIAYQGDIGWLFCGDVLIADNFCNGETWQVGLRDYADAIDAAGGKLTLVVTPLRRGVRVKVTSSMAARLEQSDACVADVTDVYATPVYHMPVGEGHHHHHH”: the “soluble on expression in E. coli” value is “soluble”.

Turning to “MSLTRFPVTALRSVDLGTPDLARSEAFYREVWGLERVGTAGGVVYLRATGRDHHVVALHRSARTELRAVTFRVADADDFEAISRNAIEQGATLIAAPAANMAPDGGTIMTLRSPEGGLLRFVHGDIRHDARPSRPELPERLAHVNLNSTDVDRTAAFYARALGFKLTDRSAAMAFVRCNSDHHAVVIAAAKVNGLNHVAFLMPTWEGVMRGSGRMIDAGYPIAWGVGRHGPGDNVFAYFIDPVGTVIEYTAEVLQVDDDYVVRGPEHWVWPPGRTDQWGIAPPKAEHVKAAQLAVGFAAEGHHHHHH”, the “soluble on expression in E. coli” value is “soluble”.

With “MSLTRISELPPQIRQEIEQLDQYIQKQVQISHHLKADTIDHDELIDSIPRDVAYLLKSESATSQYLKQDLKKISSFKSLIDEDLLDTQTFSVLLQQLLTPGSKISSNDLDKFFQKKIHLYEKKLEDYCRILSDIETAVNGIDTDLFGAPNNPNSTAITADLGSSEAENLLQLKTGLAAIVSTVIEEFTLFMDIAERIAVLHQKTKTLASLSEGHHHHHH”, the “soluble on expression in E. coli” value is “soluble”.

In the case of “MSLTSSDVRNKYNFNSDWLLYVGDVPEAKQPRFSDSEWKKVTLPHAFNEDEAFRLSIDELTDTIMWYRKHFRLPANSKNKKVFVEFEGVRQGADFYINGQNVGLHENGVMAVGFDLTPYIKYGQENVIAVRIDNDWNYKERATGTKYQWSNKNFNANYGGIPKNVWLHVTDRLYQTLPLYSNLKTTGVYIYAEDIRVKSRKAIIHAESEIRNEYNRDKQVSYQVELIDRDGTSIQTFEGTKAVVKPGETITLKAASEVDNLHFWSWGYGYLYTVKTSLWVDGRKVDEVATRTGFRKTRFGKGMIWLNDRVIQMKGFAQRTSNEWPGVGMSVPAWLSDYSNHLMVEGNANLVRWMHVTPWKQDIESCDRVGLIQAMQAGDAEKDCEGRQWEQRTELMRDAIIYNRNNPSILFYECGNESISREHMIEMKAIRDLYDPHGGRAIGSREMLDIREAEYGGEMLYINKSAHHPMWAMEYCRDEGLRKYWDDYSYPYHKDGDGSNSYKSTVTNKVQKKVDARVYNRNQDSFTIENIIRWFDYWRERPGTGDRVSSGGVKIIFSDTNTHYRGVENYRRSGVTDAMRIPKDPFFAHQVMWDGWVDTECPRIYIVGHWNYNDTVVKPVYVVSSADKVELFLNGKSLGYGEQDYHFLYTFKDIAFVPGRLEAVGYDENGKECCRTQLQTAGKPEQIQLSFIQSPEGWKADGADMVLLQVEVMDKDGNRCPLANDLIHFEVEGPAEWRGGIAQGENNYILSKDLPVECGINRALIRSLTTAGNVRITAKADGLKPAEISLTSSPVEVKNGLSNYIPGDELEGRLTRGETPQTPSYKVSKVDVGIVSAIAGANNESTVNSFDDNELSEWRNDGKAATAWITYKLERAARVDEVCMKLTGWRMRSYPLEIYAGKELIWSGDTDKSLGYVHLDVKPVLTNEITIRLKGTSKEGDAFGQIVEVAAPVANELDLFKAKDGDKTGHELRIVEIEFKENLLKEGHHHHHH”, the “soluble on expression in E. coli” value is listed as “soluble”.

For the sequence “MSLTTELVDWTHEQKCRKAVASLEKNGFTAVYCGTGQEALEYIVAEAAEAESVGFGGSMSVDDLKVIERIREMGKELLIHGAPGLSLEERVTIMRRQLTCDLFLAGTNALTLSGWLVNIDATGNRVGSMFFGPRKVIVVAGRNKIVDGGVQEAIDRIKEWASPPNARRLNYKTPCGTTGFCSDCNSPDRICRITTVIDRKPRLTDLRVLVVNEEMGFLEHHHHHH”, the “soluble on expression in E. coli” value is recorded as “soluble”.

As to “MSLTTIIFDNGGHNMKIGTIDSESPRLVPNSIVKAKHEKKRVFVAHEQEECSDKFSLFYVRPIERGYVVNWDTQQQIWEKTFGSMDVEASTSRIALTDNNYLIPALPDVSSEILFDYFGFTEVHKTSASTLVAKHSNKINNEKCAVVVDSGFSWTTVASFVNGMLIQDSVIRIDVGGKALTNKLKDWVSYRQLNVSEETYVINECKEDLCFVSQNFDESMKEARNRFQENTTMKRYIMPDFHSTFRGVVKDVKEPHDPQIPSIHLGVERFAIPEILFNPSDIDIDQCGVAEAVIESICQCPEALRPALAENIIVIGGSSCFPGFRERLEREVRSMLPAEYGLNVSNDVINPQTHSWHCGQELLTASKVPWINRKDWDERGDSLEFSNFFQTLVQSDELKGTRNFDDQREKSPKEDEDF”, the “soluble on expression in E. coli” value is listed as “not soluble”.
